# Measurements: patent publication US20240400689A1 (ANTENGENE BIOLOGICS, published 2024)
# Where a chain is given by its changes, count along the chain named. Read-outs that look alike come from different tables or passages of the source.
# T1: HUMAN B7H3 (Biacore analyte) (human, UniProt Q5ZPR3 29-461, limits assumed)
# T1 construct: also called hB7H3
# T1 sequence (looked up): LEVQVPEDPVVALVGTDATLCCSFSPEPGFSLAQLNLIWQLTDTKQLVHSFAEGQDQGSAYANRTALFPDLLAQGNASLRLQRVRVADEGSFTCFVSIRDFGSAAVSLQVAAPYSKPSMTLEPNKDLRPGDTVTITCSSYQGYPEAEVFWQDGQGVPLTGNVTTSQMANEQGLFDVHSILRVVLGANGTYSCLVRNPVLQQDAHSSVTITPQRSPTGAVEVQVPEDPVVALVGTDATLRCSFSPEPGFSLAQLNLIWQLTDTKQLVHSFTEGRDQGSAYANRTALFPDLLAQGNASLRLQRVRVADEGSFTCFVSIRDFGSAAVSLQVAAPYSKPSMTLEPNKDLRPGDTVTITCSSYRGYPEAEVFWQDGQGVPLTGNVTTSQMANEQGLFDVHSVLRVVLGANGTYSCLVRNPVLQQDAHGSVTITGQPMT
# T2: human CD276 protein (human, UniProt Q5ZPR3 29-534)
# T2 sequence (looked up): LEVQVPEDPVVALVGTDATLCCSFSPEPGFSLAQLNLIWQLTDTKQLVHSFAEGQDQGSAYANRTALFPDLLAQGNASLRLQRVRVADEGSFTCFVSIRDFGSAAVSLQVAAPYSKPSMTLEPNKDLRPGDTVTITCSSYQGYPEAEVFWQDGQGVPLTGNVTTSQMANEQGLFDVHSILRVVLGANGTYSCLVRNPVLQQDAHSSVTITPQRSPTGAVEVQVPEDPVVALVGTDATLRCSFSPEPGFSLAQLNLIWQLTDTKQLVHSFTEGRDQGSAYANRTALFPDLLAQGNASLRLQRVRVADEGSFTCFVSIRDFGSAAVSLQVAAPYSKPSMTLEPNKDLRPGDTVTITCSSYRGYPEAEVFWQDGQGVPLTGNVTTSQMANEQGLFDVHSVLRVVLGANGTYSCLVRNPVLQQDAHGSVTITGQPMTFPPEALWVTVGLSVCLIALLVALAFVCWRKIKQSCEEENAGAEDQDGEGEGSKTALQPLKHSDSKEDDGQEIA
# B1: 10-G6-C4-B2 (human IgG1 chimeric antibody) (antibody, V domains shown)
# VH: EVQLVESGGGLVQPGGSLRLSCATSGFTLSDYYMSWVRQPPGKAPEWLGFMRNKANGYTTEYSASVRGRFTISRDTSQSIIYLQMNTLRAEDGATYYCVRDRDGRPFAYWGQGTLVTVSA
# VL: DIVMTQSPSSLTVTAGEKVTMSCKSSQSLLNSINQKNFLTWYQQKPGQPPKLLIYWASTRESGVPDRFTGSGSGTDFTLTISSVQAEDLAIYYCQNDYTYPLTFGTGTKLELK
# notes: human IgG1 chimeric antibody of the mouse clone
# B2: mVH5-mVL4-10 (antibody, V domains shown)
# VH: B1 VH with G57A, D103E
# VL: B1 VL with S32A
# B3: hVH2-hVL1-10 (antibody, V domains shown)
# VH: EVQLVESGGGLVQPGGSLRLSCATSGFTLSDYYMSWVRQAPGKGLEWVSFMRNKANGYTTEYSASVRGRFTISRDTSKSTIYLQMNSLRAEDTAVYYCVRDRDGRPFAYWGQGTLVTVSS
# VL: DIVMTQSPDSLAVSLGERATINCKSSQSLLNSINQKNFLTWYQQKPGQPPKLLIYWASTRESGVPDRFSGSGSGTDFTLTISSLQAEDLAVYYCQNDYTYPLTFGQGTKLEIK
# B4: hVH4-hVL1-10 (antibody, V domains shown)
# VH: B3 VH with V12I, A40P
# VL: B3 VL
# B5: hVH5-hVL1-10 (antibody, V domains shown)
# VH: B3 VH with G16R, A23T, S49G, T80I, R89K, A90T
# VL: B3 VL
# B6: hVH3-hVL3-10 (antibody, V domains shown)
# VH: B3 VH with S49G, T80S, R89K, A90T
# VL: DIQMTQSPSSLSASVGDRVTITCKSSQSLLNSINQKNFLTWYQQKPGKAPKLLIYWASTRESGVPSRFSGSGSGTDFTLTISSLQPEDLATYYCQNDYTYPLTFGQGTKLEIK
# B7: hVH5-hVL3-10 (antibody, V domains shown)
# VH: B3 VH with G16R, A23T, S49G, T80I, R89K, A90T
# VL: B6 VL
# B8: hVH4-hVL2-10 (antibody, V domains shown)
# VH: B3 VH with V12I, A40P
# VL: DIVMTQSPLSLPVTPGEPASISCKSSQSLLNSINQKNFLTWYLQKPGQSPQLLIYWASTRESGVPDRFSGSGSGTDFTLKISRVEAEDLGVYYCQNDYTYPLTFGQGTKLEIK
# Experiments:
# [1] = target: T1, HUMAN B7H3 (Biacore analyte); assay: SPR, Biacore 8K, antibody captured, B7H3 as analyte, 1:1 binding
# [2] = target: T1, HUMAN B7H3 (Biacore analyte); assay: as above; remark: listed apart in the source
# human CD276 protein [3] = target: T2, human CD276 protein; assay: cell-based or functional assay
# human CD276 protein [4] = target: T2, human CD276 protein; assay: FACS on SKOV3 cells
# Procedure, shortened: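 Human IgG1 chimeric antibodies were tested for binding to trypsin-detached SKOV3 ovarian cancer cells by flow cytometry, with cells washed in FACS buffer and kept in the dark before acquisition. Titration read-out was MFI plotted against antibody concentration (nM).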
# human CD276 protein [5] = target: T2, human CD276 protein; assay: FACS titration on SKOV3 cells (MFI against Conc. (nM)); unit taken from the concentration axis
# Description: Sequences of 31 mouse antibodies from Table 5 were selected to generate and produce human IgG1 chimeric antibodies. The binding affinity of these antibodies and bench mark antibody, Enoblituzumab (see U.S. Pat. No. 8,802,091, MGA271, specifically with a construct designated as hBRCA84D-2) and MGC018 (an antibody-drug-conjugate, in which the mAb MGA017 (human IgG1) is conjugated via a cleavable linker to the prodrug seco-DUocarmycin hydroxyBenzamide Azaindole (DUBA), an alkylating agent that can damage DNA in both dividing and non-dividing cells, thereby causing cell death) with human patient derived ovarian cancer cell line, SKOV3, was determined by FACS analysis.
# 1. Digested cells using Trypsin (1×); Centrifuged the harvested cells at 300 g for 3 min and discarding the supernatant. […] 2. Washed the cells 2 times with FACS buffer by centrifuging at 300 g for 3 min and discarding the supernatant. [0445] 3. […] Kept the cells in dark for FACS analysis.
# human CD276 protein [6] = target: T2, human CD276 protein; assay: cell-based or functional assay; remark: listed apart in the source
# human CD276 protein [7] = target: T2, human CD276 protein; assay: cell-based or functional assay; remark: listed apart in the source
binder,measurement,setting,value
B1,Kd,[1],0.785 nM
same,koff,[1],0.000198 s⁻¹
same,kon,[1],252000 M⁻¹ s⁻¹
same,Kd,[2],0.415 nM
same,koff,[2],8.97e-05 s⁻¹
same,kon,[2],216000 M⁻¹ s⁻¹
same,IC50 of indirect ADC cytotoxicity on SKOV3,human CD276 protein [3],0.008 nM
same,EC50,human CD276 protein [4],0.822 µg/mL
same,MFI (Max),human CD276 protein [4],5640
same,EC50,human CD276 protein [5],2.33 nM
same,EC50 of antibody induced CDC effect,human CD276 protein [6],2.74 nM
same,"Top cytotoxicity (%), CDC",human CD276 protein [6],93.5%
same,EC50 of antibody induced ADCC effect on SKOV3,human CD276 protein [7],0.237 µg/mL
B2,EC50,human CD276 protein [5],2.76 nM
B3,EC50,human CD276 protein [5],1.92 nM
B4,EC50,human CD276 protein [5],1.9 nM
B5,EC50,human CD276 protein [5],2.63 nM
B6,EC50,human CD276 protein [5],2.75 nM
B7,EC50,human CD276 protein [5],2.98 nM
B8,EC50,human CD276 protein [5],4.43 nM
